From a protein production outcome set (Wang et al. 2014)

Test: label from the status in PepcDB records
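Further: failed if final PepcDB status was selected cloned or expressed and not failed if soluble or beyond.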

Row | Sequence | protein production
1 | MEPNCVQFLENRTILVTGASGFLAKVLVERILRLQPNVKRLYLLVRASDKKSAEQRYDVALGINTFGAINVLNFAKKCVKPKLLLHVSTVYVCGERPGHIVEKHFAMGESLNGKNKVDINTERRLADQKSKQFKEQGCSEEETEQAMKDFGLKRARLYGWPNTYVFTKAMGEMLLGHYRETMPIVIIRPTIITSTFSDPFPGWIEGLKTVDSVIIFYGKGILKCFLVDQKTVCDIIPVDMVVNAMIAIAADHCHDSGSHTVYHVGSSNQNPVIYKQIYEMMSRYFMKSPLVGRNGMLIVPKVTRISTLARFRVYTNLRYKLPIQILGLLSVISLSQRDKFALHNRKFKMAMRLVKLYKPYVLFKGIFDDKNMETLRIKNEAKDMEKLFGTNPKCIDWEDYFMIRISLAS | failed
2 | MAIPSGATGKEPFLPRTLTVLREGYDGGTFFKDLAAGLTVGIVALPLAMAFAIASGTTPERGLFTAIVAGFLISLLGGSRYQIGGPTGAFVIIIFNVIMKHGYDGLVVTTLLAGAMLLVFGLCRFGALIKYIPYPVTTGFTAGIAVLIFSQQVKDFLGLSMQSVPPDFFEKWQAYIHNAATFDPATCGIAFLALGAIILTRKTIPRIPGPVVGVVLASLTVWALGLDVETIGSRFGGIPTELPTFTLPTVTLERVRQLLPDAMTIALLAGIESLLSCVVADGMTGDKHNSNVELAAQGAANIASVMFGGIPATGAIARTVTNIRSGGRTPVAGMIHAAVLVGFILYLAPLASFIPLASLAAVLMVVAWDMSEMHKFLRLLHAPKSDVLVMCLTFALTVVIDLTVAVYVGVMLASLLFMRRMSEVTQICTCLDGEATKVQGRETAELDVPEGVKVYEIDGPFFFGVADRFQNVLAALDRQPEVFILRMRKVSTLDSTAVNALEVFWRKCRSDGTQLLLSGVRETMRTTLRRMGTLSLIGEGNICENIDAALARAGQVLAERREAEDRPQ | failed
3 | MDQMEKITTGVSYTTSAVGTGYWFLQLLDRVSPSQWAAIGVLGSLLFGLLTYLTEVYWQ | failed
4 | MPDIAVLVKASLNPDMARIGPDDSVDLNSIPLKISDIDRNAVEEAVKLKEKLGGKLYAVSVLTWGPVKLRNKDLRLAVQEALAKGVDEAIVVADDELTPGDQTTTAKAIKAALEKHGVKPELILAGEATIDEVTSQVPGRLASLLGYKYLSFVRKLDVDNGRIIAERDLEDYIEVVEASLPAVVSVTQEINEPRPPTLLQIRRAARKPVKEYSASELENVGKPVRRIVQIRGVQVKRKQQIIEGDNLEEIAEKLIEALAREGVLKL | failed
5 | MNADTAIRIIEPPPSRGQLLYDGIRSLRKPKPDAAPQLPTERLVRPAVELKADEIARYARACGFRREHGVPLAFPHTLAFPLHLLLLTRPTFPYPASGMVHLANRIRQYQRLEEGQALRLEVFAERWLAHPKGQALSIATRAHSGGSLVWESDSLYLRRGVAGPIGEPWEGSLQWDEQALVRTQRWSLGGDLGRRFAQVSGDFNPIHTSWLGARLFGFRRPIAHGMWTLGRALAAQQPPHPLAAAQLDCEFKLPIFLPAAVTLWNRLPDGPRHEFEVRNNAGDKPHMRGLFIWGAR | failed
6 | MNHNYVEVKYPAIFRDEGTYWDVRFPDVPAAQTFGASVQVAADNAANALAIALFEQSLPPASDPQYWRLASTEFVVWITMADVQFGPGADTPEPMN | not failed
7 | MQTSFCVLVSIIERMPTWNDIKVRNPQHSHNYAKRWENLEAEGNDINGEARLIDALVQRGSKILDAGCGQGRVGGYLSARGHIVTGIDIDDYLISEAEKKFPSATWHVGDLGSESIPDQGFDIAVCAGNVITFIEPDKQEAALAHIFEALRPNGRCIIGFGAGRGYVFPQFFEDARNVGFVIENNFESWGLNPLTNRSQFLVAFLRKPELEHHHHHH | failed
8 | MWLYYLQVVMDMRVYVEGYGCVLNTADTEIIKNSLKKHGFEVVNNLEEADIAIINTCVVRLETENRMIYRINELKNLGKEVVVAGCLPKALKNKVKGFLHIYPREAHKAGEILKNYVEKHYRMPYIEEDINKTLYKKLDYLKPSLITPLPICEGCIGNCSYCIVKIARGGLISYPREKIVNKAKELINKGAKCLLITAQDTACYGFDIGDNLANLLNELTQIKGEFIMRVGMMHAKNAELILDELIEVYQNEKVGKFLHLPLQSGDDEILKRMKRGYTVDEFKDIVNEFRRKIKNLCFTTDIIVGFPGETEEQFQNTLEVLRELKPDYIHGAKYSQRKGTEAAKMKQIDTKIRKRRSEILDKLRRELSYLNNKKYIGKAMKVLVLDEGKGYTDNFKVVKFEGGEVGEFRKVKITDAKTFGLKGELILLEHHHHHH | not failed
9 | MEKLSAREKPDINVAEAWEQYWNKTLVNATPVLWDANVERAVVVDLPRFQSFFDTELPLIDFACGNGTQTKFLSQFFPRVIGFDVSKTALEMASKENTAANISYRLLDGLVPEQAAQIHSEIGDANIYMRTGFHHIPVEKRELLAQSLRTLLGKQGVMYLIELGTGCIEFFNSLLEKYGKLPYELSLVMEHGIRPGIFTTEDIELYFPDFEILSQGESLFQSIHKLPDGNYATPPAFWAVIKRH | failed
10 | MNRFSRARSYISLVLFRKSSYVTSHIPWNQCFYTSLKSSLKPASVSVSSVHCYSSRSKTAKSKMSKSSVSVSDSDKEKDAFFVVRKGDIVGIYKDLIDCQAQVGSSVYDPPVSVYKGYSLLKDTEECLSTVGLKKPLYVFRALDLKEDMFGALTPCLFQDQLPSASMSVEKLAELEPSADTSYETCIIEFDGASKGNPGLSGAAAVLKTEDGSLIFKMRQGLGIATNNAAEYHGLILGLKHAIEKGYTKIKVKTDSKLVCMQMKGQWKVNHEVLSKLHKEAKQLSDKCLSFEISHVLRSLNSDADEQANMAARLSEGEVEVA | failed
11 | MKIVSKSSPLPLHYQLKMILQEMIENEELLPGDTIPTERELCEIQKISRMTVNKAILSLVSEGILYREQGKGTFVAKKKEKQQLTKLKSFTEEMREKGLNISTKILSFEIKTATKHISTLLELPHKKMKVIEIIRLRLTDNDPSAIETVVLPLYLFSDMTKEVIDGKSLYNTFREKYGYEPTKAKQTIEPIMLTDYEAKFLNQVGNSLALLFRRLTYRKDGVPIEYTKSIYRSEKYKYEVILT | failed
12 | MKITLEHWFYNWLFEYRIKDLKPKSFERYESIYRNYIKDTDLGNVKLKYLRVSHIQKYYNRLLDSNKSIPTIRQINTKLKTCLSEAEKQGLIQRNYCTMVNIPLEHHHHHH | not failed
13 | MGKYFFSETEIKNSWDLVLTAFWQRYPNPFSSHVLTEDVLFRKVTSENLLVSRRLFTKTNRLPRWAERIFPGRRSVYIIEDSVVDLSNRSLTTMTWNVNHAKLMRVVERCVFTGEQDRPVWTHITRQAWISSGVFGLSRPIQEFGLARFRSNQLKAMKGMEHAISNLQKASSSCHGESAEKPKNVNPAAKNAQKPQQYI | failed
14 | MNYQKMNYQKLGVDILALSGGKQNVSKLTHCATRLRFEFNDSHAVQAEAIAKLPGVISVVDRGGQFQVVIGNDVQITYRAILNEIGEMNGQRTSDKNKQQKKGGIFSQIISVISTTFTPVIPAITGAGMIKALLAILKLTGLISADSTTYRLLDTISDAAFFFLPVLLAYGASIKFACNPILAMTIAGALLHPNLAQLLASGGPISFIGIPVRLADYAGSVLPIILTVWIMSYIERFAEKISPSMITFFTKPMIVLLFTAPLALVVIGPFGIFLNDLVASGAAIIDGKASWLIPMLMGGLQPFLVITGTAWAMTPIATSQLTRNGFEMINGPGMLASNIAQGAATLCVAFKTKNKNLKQLASSAGFTALLGITEPSLYGVTLKLKKPLIAAMIGGGCAGIYAGLAGLVRYAFVSPGLAALPAFIGENPMNIVHALITCAIAIVVTFALTWIMGFDDPVDETDNAQTDSTQSDARQSAPAANTTQKSQATENHAEPQTILSPLSGKLVALSDINDDVFSQGLLGQGVAIIPDNGEVVAPVSGEIITFLESKHAVGIRTDSGLELLIHVGLDTVNLNGKHFTGYIKPGDRVTAGDRLISFDLHEITRLGYDPITPVVIINSDEYASVVCTVPQPIAPMDTIINVNA | failed
15 | MENVKVSVIVPVYNVETYLEEALMSLKNQTLKEIEFLIINDGSTDNSQKIIEEIAQDDPRFRVFNVKNGGIGKAFNLGVSEAKGEYIAEFESDDYVALHAYERLYNTAKSHHADVVRCNWVEFSSEEEVERDILWQYPDKYNQLIDLKTTDLIVQVYPWNAIYKKSMIEKENVTWDEEIKSYGDTGLFWKINSASQNVIFIKDCLYFYRQDNPNSTVNNVATKVPFLFQQFKLIRSNLIEQNKFERYKGYFYKQMFEKYFWAIEKLTHLRDESVYEVIQKVAVDFRQALETDQLNDIDFEYIKQFYQIANDPAAYYEDYLKNLYKVSVVMPIHNASKYLRQTLETVCEQSLREIEIILVENGSTDNTMDIINEFAVKDPRITGISIGKSNPGHARNVGISMARGRYLQFLDADDHFEANLLQDAYYRAYDSATDILLFGMKEKLPNGEVHVVHNPLLTNGGRMSGEEISLDEVTPYLYDKLFLLEYIKENNLVNLEQFVGEDAYFTYTALLGTEKIVALNKYLLTRIVRQDGLMSTYGMNYRDEFNLHDKMLEYLKQHAPNRIEAYRLKIINTLNWFIFDMNRVDQAFKERFYQELKEKYIQQLGLDLVKKEKYSNDPEQVERITRIQNILQYNLEIYQNIYKDFGMKKTFIIPNVHIQERGGKVIFGQEKTQGNGTAIEMFSIIIADNDTSNASGVIDFVYMGDNTKIIHDSLLVSLLIKKEGTTLKSIVLQAEWEKGYTLLQENMYYTFVDNVFTIWAGYTQKYAAFDYNVRILTSREGETHFSVVRQNQGYIQDTMTSIGNELTPINKIEGNEPTTIKKAVSKSLKKAKGLLK | failed
16 | MDAKEDVRPTGRGGRGVTAKSHVIVTSNMSVRQFLDVKYTTMNLNLFLSLDPIVDDNQNTLIKKDCSGRVDKDKGIVGDAQVFYTNGFKMSAMVTKHTNRSYLNNPTSIRRKLFDDAGVKGSNGVVRFHSVETSNVVTISVVNDFYNNEMGDDGVTNVTGIIRLARSTNGDSN | failed
17 | MRRQPSLTLRSTLAFALVAMLTVSGAGLYLYQSIEQTVLQRSDHAVLARLDHFRKLLRYDLTMDNLKGSPQLFENMLDSEEDIFIIGEPGKPPVVSVNPQHAPLPDLPTVAQDQPLRVDDLRSGMSLQGVPLRAAAAQVMSNGVEVRLQAAHLMVKEMAMLASFRQSIYIAVALAFLITAVLGYVLLRRGLRPLRKMAAHAAAITPASLHKRLDSHDTPVELQQLSNAFNAMLDRIDDGYRRLMQFSADLAHEIRTPVGSLMGHCQVALRQDRSVDEYQALLASNLEELERISRLVESILFLARADEAQAALERQPLDLHDELQRVAGYFEGLADERNLKLSPSGRGTLLADPILLRRALSNLVANAIRYADEDSEILIRVVTVDQQWRIEVENQGPVLPHATLARLFDRFYRGDASRHERSDSNGLGLAIVTAIMHLHGGCVEVAQPAVGRICFSLVFPAA | failed
18 | MNIQRETSGHIAAIVTILIWGTTFISTKVLLADFSPMEILFYRFLMGFIALILVRPNMIPFRNWRQELLFAGAGLFGVTLYFLLENIALTYTYASNVGMIVSIIPMITAVLAHFLLEGEKLRLTFLIGFISALIGLLLITFNGNVVLRLNPLGDIMAAGAALVFGGYSIFMKKLSAYEYHIIELTQRVFLYGLLFMVPALFLFDFHFDLSRFSSASNILNMLFLGIGASALCFATWNYSVGVLGAVKSSAYIYMVPVITIAASVLILHENMTWIALLGGALTLLGLYISELKPKAKLLENGCKMDA | failed
19 | FEELLNALHDGVYITDGQGQTLKVNQAYERLTGLNGAELLGRPMQELVKSGVISQSASLRVLQDGRPVSVMQSLSHGKKLLVSATPILAADQSIRYVVSTVRDMTELLRIKRERDELQQL | failed
20 | MEALRLGFSPCPNDTFIFYALVHGRVESPVPLEPVLEDVETLNRWALEGRLPLTKLSYAAYAQVRDRYVALRSGGALGRGVGPLVVARGPLQALEGLRVAVPGRHTTAYFLLSLYAQGFVPVEVRYDRILPMVAQGEVEAGLIIHESRFTYPRYGLVQVVDLGAWWEERTGLPLPLGAILARRDLGEGLIRALDEAVRRSVAYALAHPEEALDYMRAHAQELSDEVIWAHVHTYVNAFSLDVGEEGERAVARLFAEAEARGLAAPSPRPLFV | not failed
